# Ends that are not written are not given here.
# How the values were obtained:
# B- and T-lymphocytes = details: cited from earlier work
# [1] = Stability of proenkephalin fragments and enkephalins ex vivo (plasma, liquor); assay type: in vitro ADME
# From the text: In one embodiment the invention is based on and uses the discovered long term stability of proenkephalin and enkephalin-fp ex vivo in plasma (FIG. 3a). […] Proenkephalin and enkephalin-fp are stable as well in liquor.
# [2] = tested on: gram-positive bacteria like Streptococcus aureus, Bacillus megaterium and Micrococcus luteus; details: cited from earlier work
# [3] = tested on: gram-negative bacteria like Escherichia coli; details: cited from earlier work
molecule,measurement,setting,value
methionine enkephalin [Met-ENK],proliferation,B- and T-lymphocytes,stimulates the proliferation
DAEEDDSLANSSDLLKELLETGDNRERSHHQDGSDNEEEVS [enkephalin-fp],half-life,[1]; ex vivo in plasma,> 24 h
same,stability in liquor,[1],stable
"proenkephalin: precursor of the enkephalins, Sequence ID 1, including its fragments (protein) ECSQDCATCSYRLVRFADINFLACVMECEGKLPSLKIWETCKELLQLSKPELPQDGTSTLRENSKPEESHLLAKRYGGFMKRYGGFMKKMDELYPMEPEEEANGSEILAKRYGGFMKKNAEEDDSLANSSDLLKELLETGDNRERSHHQDGSDNEEEVSKRYGGFMRGLKRSPQLEDEAKELQKRYGGFMRRVGRPEWWMDYQKRYGGFLKRFAEALPSDEEGESYSKEVPEMEKRYGGFMRF",stability in liquor,[1],stable
same,in vivo half-life,In vivo half-life,about 24 hours
"Synenkephalin: PENK-A derived peptide with antibacterial properties (peptide, UniProt P01210 25-97, looked up, Synenkephalin) Synenkephalin: ECSQDCATCSYRLVRPADINFLACVMECEGKLPSLKIWETCKELLQLSKPELPQDGTSTLRENSKPEESHLLA",antibacterial function,[2],antibacterial properties
same,antibacterial function / growth inhibition,[3],antibacterial properties
